# Literature values as cited in patent US9145575B2, “Detection of protease and protease activity using a single nanocrescent SERS probe” (The Regents of the University of California, priority 2006, dated 2015).
# Target: PSA (Homo sapiens, UniProt P07288)
# Conditions: mouse model
# Sequence of PSA (P07288 25-261): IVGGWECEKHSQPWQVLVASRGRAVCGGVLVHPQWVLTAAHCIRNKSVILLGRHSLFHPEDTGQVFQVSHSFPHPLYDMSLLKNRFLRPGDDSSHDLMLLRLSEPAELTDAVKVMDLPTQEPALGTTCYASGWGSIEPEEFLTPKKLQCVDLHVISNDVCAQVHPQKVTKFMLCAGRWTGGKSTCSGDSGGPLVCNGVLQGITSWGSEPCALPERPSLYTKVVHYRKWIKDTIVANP
substance,measurement,value
HSSKLQ-L (HSSKLQLAAAC; Synthetic protease substrate),cleavage by proteases in vivo,cleaved by PSA but not by any other proteases
